Assay results from the DeepSol protein solubility set.

test: soluble on expression in E. coli; label from the status in PepcDB or PDB records

| Sequence | soluble on expression in E. coli |
| --- | --- |
| MKLRANIIEKRGTLQVIVSYKDSNGKIRQKWKDTKLKKKGNKKRAEKIRDEFLLELESQLAMECECANPDLLFYDYLLNYLEVSKKQVAFNTYVGYKHYVHNRIYKFFYPKKIKLNRLKPYHLQDFYQYMLNDDCTANTVIHYHAFIRKALQEAVITELISTNVADKVRKPKKKQFVSQVYNQHEILKLLDILSEEKLYLVVLLTAFYGLRRSEVLGLKWSAIDFLNKKIMINHVIIENPENMSQLIKKDQTKNSSSYRTLPLVETIERALVNQAKWQQDNRILLGEDYILKDSEYVFTMEDGRLMKPQYVTHRLSKLIKKNGLKKIRFHDLRHSNASIMLDSGQNMKSIQEWLGHASYSTTANLYTHLTAGVKERAAEALENAFGFKE | not soluble |
| MKAYKLLTTASIGALMLGMSTAAYSDNWRYAHEEYEGDVQDVFAQAFKGYVEDNSDHTVQVYRFGELGESDDIMEQTQNGILQFVNQSPGFTGSLIPSAQIFFIPYLMPTDMDTVLEFFDESKAINEMFPKLYAEHGLELLKMYPEGEMVVTADEPITSPEDFDNKKIRTMTNPLLAETYKAFGATPTPLPWGEVYGGLQTGIIDGQENPIFWIESGGLYEVSPNLTFTSHGWFTTAMMANQDFYEGLSEEDQQLVQDAADAAYDHTIEHIKGLSEESLEKIKAASDEVTVTRLNDEQIQAFKERAPQVEEKFIEMTGEQGQELLDQFKADLKAVQSESEG | soluble |
| MSLVGYSAVSQPSPASFLLGPTLPPAPSIAFRLWRPYSMTARITSVEALPYRLPLTSKLAWGAHSALSAAEHVLVRVTLSDGSVGVAEATPRPTIYGETPGSVTAILQHLEPALLGLDIADEAALNRVRGSVAGNHTARGALDMALWEARAASRGQSLFDTLLGPHERVRVSFILGIAPPAEMLAEAERVVAAGVRCLKVKVGRHAAQDLQVIAELRRRYGDDVQLYADSNETLTLEQAPDVLAAMREAGLMYVEEPLPARDLRARAALHAAGVLPIVADDSCFTPADLERELDFDTFDVLNVKTARNGFTDGLQMLRRAAEHGKRGMVGSQASTGLGTLHAALLSTQAEVTEPCELSFVLKLGDDLLNRPIEFQDGWLNVPELREHRLDEDKLARYRIEGHHHHHH | not soluble |
| GSHMGDKEKETLFKDYLNLIVVKMTEWIGNLEKAEFDVFLERSTPPHSDSDGLLFLDGTKTCFQMFTQQVEVAAGTNQAKILVGVVERFSDLLTKRQKNWISKISEEIKKQINYNHKYDIDPESITPEDECPGGLVEYLIAVSNDQMKAADYAVAISSKYGKLVSKVYEKQITNHLEGTLDGFAEVAQCSSLGLITLMFDDLRKPYQEIFSKTWYMGSQAQQIADTLDEYLLDIKPQMNSVLFVNFIDNVIGETIIKFLTALSFEHSFKNKNNKFLEAMKRDFEIFYQLFVKVLDGNESKDTLITQNFTVMEFFMDLSCEPIDSILDIWQKYLEVYWDSRIDLLVGILKCRKDVSSSERKKIVQQATEMLHEYRRNMEANGVDREPTLMRRFVLEFEKQ | soluble |
| SLIENVDAQADSSWPHRGQIEVRNLTVKYTEAGHAVLKNLSFSAEGRQRVGILGRTGSGKSSLFNALLKLVYTDGEISIDGVNWNKMPLEKWRKAFGVVPQKVFIFTGPLRMNLDPYGCHSDEELWRVAEEVGLKTVIEQFPDKLDFQLEYGGYVLSNGHKQLICLARSILSGARILLLDEPSAHLDPVTIKVLKKTLRQSFSTCTILLSEHKVEPLLECDSFLMMDKGQVKTYDSIQKLLNETSDLKQAISPAE | not soluble |
| SNAMRLVADSACDIKELRGMVFKAVPLTISTDNEEFCDDGQLDIHRMLDILEKHKGRSYTACPGIDAWLEAFGDDDEIFVVTITAGMSGTYNSAMAARAVYLEEHPQAKVRVIDSKSTGPQMRIILEQLQQMIEEGKKFEEIDGAIDAYMQKTRLFCSLKSLHNLAQNGRVSKVVASAAEVLGISVIGTASSHGTLEAIGKCRGDKKLLVKLQALLDDAGYEGGKLRICHVENEALADKIADMIKQAYGTTDVCVYKAGGLCSYYAERGGIILSCETK | soluble |
| ELQVIQPEKSVSVAAGESATLRCAMTSLIPVGPIMWFRGAGAGRELIYNQKEGHFPRVTTVSELTKRNNLDFSISISNITPADAGTYYCVKFRKGSPDDVEFKSGAGTELSVRAKPSAPVVSG | soluble |
